This experiment deals with caveolin-1 (rat (endogenous in cerebellar granule neurons)) (UniProt P41350). In words: co-IP; anti-caveolin-1 (sc-894) on ImmunoCruz IP/WB Optima matrix; 400 µg of CGN lysate treated with 1% Triton X-100 for 30 min, incubated overnight at 4 °C, washed with Tris-buffered saline; PKA and CaMK-II detected by Western blot in precipitate and supernatant, percent by densitometry.
Sequence of UniProt P41350 (P41350 whole entry): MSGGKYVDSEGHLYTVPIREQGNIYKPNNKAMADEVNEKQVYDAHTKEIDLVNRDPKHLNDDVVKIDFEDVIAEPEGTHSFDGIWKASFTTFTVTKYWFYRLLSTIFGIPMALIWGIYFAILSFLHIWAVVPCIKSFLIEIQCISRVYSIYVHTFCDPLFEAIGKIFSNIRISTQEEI

Substance “calmodulin-dependent protein kinase II (from UniProt P11275 1-478) (enzyme)” came in with a percentage of coimmunoprecipitation with caveolin-1 of 39%. For “protein kinase A (from UniProt P27791 1-351) (enzyme)” the value was 16%.

Source of the values: article PMC6275079.
